Measured values reported in doi:10.1101/2021.07.12.452133.

Tests used:
[1] = target: MBP-tagged delVirB4_CTn4 (NH2-terminally truncated VirB4-like ATPase of the CTn4 locus, C. difficile 630) (Clostridioides difficile strain 630); assay: SEC
[2] = target: MBP-tagged delVirB4_CTn4 (NH2-terminally truncated VirB4-like ATPase of the CTn4 locus, C. difficile 630) (Clostridioides difficile strain 630); assay: negative-stain transmission electron microscopy
[3] = target: MBP-tagged delVirD4_CTn4 (NH2-terminally truncated VirD4-like ATPase of the CTn4 locus, C. difficile 630) (Clostridioides difficile strain 630); assay: SEC
[4] = target: MBP-tagged delVirD4_CTn4 (NH2-terminally truncated VirD4-like ATPase of the CTn4 locus, C. difficile 630) (Clostridioides difficile strain 630); assay: negative-stain transmission electron microscopy

Substance	oligomerization rate [1]	stoichiometry N [1]	stoichiometry N [2]	oligomerization rate [3]	stoichiometry N [3]	stoichiometry N [4]
MBP-tagged delVirB4_CTn4 (NH2-terminally truncated VirB4-like ATPase of the CTn4 locus, C. difficile 630) (domain or fragment)	100%	> 6 monomers	6 to 7	–	–	–
MBP-tagged delVirD4_CTn4 (NH2-terminally truncated VirD4-like ATPase of the CTn4 locus, C. difficile 630) (domain or fragment)	–	–	–	100%	> 6 monomers	6 to 7
